Measurements: US7799901B2, “Modulators of the function of FAS receptors and other proteins” (Yeda Research and Development Co. Ltd., priority 1995, dated 2010)

How the values were obtained:
MORT1DD (130-245) = target: T1, MORT1DD (130-245) (Homo sapiens, UniProt Q13158); assay: Two-hybrid β-galactosidase expression filter assay in SFY526 yeast, DNA-binding domain hybrid MORT1DD (130-245)
T1 construct: 130-245 MORT-1; expressed in transfected cells
T1 sequence (Q13158 82-197): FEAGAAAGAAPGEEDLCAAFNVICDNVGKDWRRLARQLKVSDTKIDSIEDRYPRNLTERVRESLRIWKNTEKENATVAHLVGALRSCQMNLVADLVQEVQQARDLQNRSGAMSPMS
Source text: To isolate proteins interacting with the intracellular domain of the FAS-R, the yeast two-hybrid system was used (Fields and Song, 1989). […] In this system, the genes for the candidate interacting proteins are cloned into separate expression vectors. In one expression vector, the sequence of the one candidate protein is cloned in phase with the sequence of the GAL4 DNA-binding domain to generate a hybrid protein with the GAL4 DNA-binding-domain, and in the other vector, the sequence of the second candidate protein is cloned in phase with the sequence of the GAL4 activation domain to generate a hybrid protein with the GAL4-activation domain. The two hybrid vectors are then co-transformed into a yeast host strain having a lacZ or HIS3 reporter gene under the control of upstream GAL4 binding sites. […]
The yeast two-hybrid test was further applied to evaluate the specificity of binding of MACH to MORT-1, in particular, to define the region in MORT-1 to which MACH binds, as well as to determine which of the MACH ORFs interacts with MORT-1, the procedures being as set forth herein above in Examples 1 and 2. Briefly, various MORT-1 and MACH constructs were prepared for testing the interaction of the proteins encoded by the Gal4 DNA-binding domain and activation domain constructs within transfected SFY526 yeast cells as assessed by the β-galactosidase expression filter assay. […]

FAS-R = target: T2, FAS-R (Homo sapiens, UniProt P25445); assay: Two-hybrid β-galactosidase filter assay (FIG. 5), binding to FAS-R; details: two hybrid test
T2 construct: the FAS-IC extends-from amino acid residues 175-319 of the intact FAS-R; expressed in transfected cells; host or cells: SFY526 yeast
T2 sequence (P25445 191-335): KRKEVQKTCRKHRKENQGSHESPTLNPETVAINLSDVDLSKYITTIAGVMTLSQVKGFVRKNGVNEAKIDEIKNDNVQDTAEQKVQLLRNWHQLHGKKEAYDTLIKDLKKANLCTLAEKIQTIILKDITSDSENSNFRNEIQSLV
Procedure: The yeast two-hybrid test was further applied to evaluate the specificity of binding of MACH to MORT-1, in particular, to define the region in MORT-1 to which MACH binds, as well as to determine which of the MACH ORFs interacts with MORT-1, the procedures being as set forth herein above in Examples 1 and 2. Briefly, various MORT-1 and MACH constructs were prepared for testing the interaction of the proteins encoded by the Gal4 DNA-binding domain and activation domain constructs within transfected SFY526 yeast cells as assessed by the β-galactosidase expression filter assay. The DNA-binding domain constructs were prepared in pGBT9 vectors and the activation domain constructs were prepared in pGAD-GM vectors. […] In the assay, the development of color was determined, where the greater the color development, the greater the interaction between the constructs encoded by the DNA-binding domain and activation domain; Color development was depicted by symbols, where “+++” and “+” indicate the development of a strong color within 30 and 90 min. of the assay, respectively, and “−−−” indicates the lack of development of color within 24 hrs. of the assay. […]
In FIG. 5, there is shown the results of the interaction of MORT-1 and MACH within transfected yeast cells. […] Their interaction was assessed by a β-galactosidase expression filter assay as described in Boldin et al (1995b). […]

B1: MACHβ1: MACH isoform, cDNA SEQ ID NO: 4, amino acid SEQ ID NO: 5; lacks the CED3/ICE homology region (protein)
chain: MDFSRNLYDIGEQLDSEDLASLKFLSLDYIPQRKQEPIKDALMLFQRLQEKRMLEESNLSFLKELLFRINRLDLLITYLNTRKEEMERELQTPGRAQISAYRVMLYQISEEVSRSELRSFKFLLQEEISKCKLDDDMNLLDIFIEMEKRVILGEGKLDILKRVCAQINKSLLKIINDYEEFSKERSSSLEGSPDEFSNDFGQSLPNEKQTSGILSDHQQSQFCKSTGESAQTSQH
In the case of B1, the “development of color (interaction with DNA-binding domain hybrid)” value (MORT1DD (130-245)) is reported as “−−− (“−−−” indicates the lack of development of color within 24 hrs. of the assay)” and the “binding to FAS-R in transfected yeast” value (FAS-R) is reported as “unable to bind”.
